Measurements as given in paper PMC4609117.

What was measured:
[1] = target: T1, Ms0535 (GntR family, FadR/VanR-like regulator) (Mycobacterium smegmatis mc2 155, UniProt A0QPV8 1-212); experiment: EMSA; 0-4 uM protein; only one shifted band; settings: protein: recombinant; tags: His-tag (pET28a); chain copies: 2; blunt
[2] = target: T1, Ms0535 (GntR family, FadR/VanR-like …); experiment: EMSA; 0-4 uM protein; settings: protein: recombinant; tags: His-tag (pET28a); chain copies: 2; blunt

Row | Binder | binding result [1] | binding result [2]
1 | Ms0535p1 (one IR mutated) (dsDNA) DNA 1: CACACCGTTCCATGCATGTTCTTGCATGCAAGGCGCGCTA DNA 2: TAGCGCGCCTTGCATGCAAGAACATGCATGGAACGGTGTG | binds | 
2 | Ms0535p2 (one IR mutated) (dsDNA) DNA 1: CACACCGCCTTGCATGCATTCTCATGCATGGCCCGCGCTA DNA 2: TAGCGCGGGCCATGCATGAGAATGCATGCAAGGCGGTGTG | binds | 
3 | Ms0535p0 (dsDNA) DNA 1: CACACCGCCTTGCATGCATTCTTGCATGCAAGGCGCGCTA DNA 2: TAGCGCGCCTTGCATGCAAGAATGCATGCAAGGCGGTGTG |  | binds
4 | Ms0535p7 (both IRs mutated) (dsDNA) DNA 1: CACACCGTTCCATGCATGTTCTCATGCATGGAACGCGCTA DNA 2: TAGCGCGTTCCATGCATGAGAACATGCATGGAACGGTGTG |  | no binding
